Consider 15 molecules from patent US20090191571A1.

Like-named read-outs stand apart in the source and are kept apart here.

Assay [1] addresses T1, PrP^Sc (pathogenic mouse prion protein, RML, in infected Balb-c mouse brain homogenate) (mouse), P04925.
Assay [2] addresses T1, PrP^Sc (pathogenic mouse prion protein, …). This is another data set of the same source.

B1: Peptide reagent SEQ ID NO:73 (peptide)
peptide: GGGGPKRKGPK
modifications: not checked
B1 had an ELISA A405nm in assay [1] of 1.06 A405nm.

B2: Peptide reagent SEQ ID NO:71 (peptide)
peptide: PHGGGWGQ
modifications: not checked
For B2, in assay [1], the ELISA A405nm is 0.263 A405nm.

B3: Peptide reagent SEQ ID NO:80 (peptide)
peptide: GGGKPSKPK
modifications: not checked
In assay [1], B3 came in with an ELISA A405nm of 0.225 A405nm.

B4: Peptide reagent SEQ ID NO:56 (peptide)
peptide: GGGAGAAAAGAVVGGLGG
modifications: not checked
B4 gave an ELISA A405nm in assay [1] of 0.313 A405nm.

B5: Peptide reagent SEQ ID NO:106 (peptide)
peptide: GGGKKAPKPGG
modifications: not checked
For the molecule B5, the ELISA A405nm in assay [2] stood at 0.268 A405nm.

B6: Peptide reagent SEQ ID NO:53 (peptide)
peptide: GGWGQGGGTHNQWNKPSKPKTN
modifications: not checked
For the molecule B6, the ELISA A405nm in assay [1] stood at 0.254 A405nm.

B7: Peptide reagent SEQ ID NO:98 (peptide)
peptide: GGGKKRAKAGG
modifications: not checked
Molecule B7 had an ELISA A405nm in assay [1] of 1.46 A405nm.

B8: Peptide reagent SEQ ID NO:79 (peptide)
peptide: GGGNKPSKPK
modifications: not checked
As for B8, the ELISA A405nm in assay [1] came out at 0.24 A405nm.

B9: Peptide reagent SEQ ID NO:72 (peptide)
peptide: GGGKKRPKPGGGKKRPKPGG
modifications: not checked
Molecule B9 came in with an ELISA A405nm in assay [1] of 0.522 A405nm.

B10: Peptide reagent SEQ ID NO:54 (peptide)
peptide: GGTHNQWNKPSKPKTN
modifications: not checked
In assay [1], B10 registered an ELISA A405nm of 0.253 A405nm.

B11: Peptide reagent SEQ ID NO:104 (peptide)
peptide: GGGAKRPKPGG
modifications: not checked
The molecule B11 came in with an ELISA A405nm in assay [2] of 0.273 A405nm.

B12: Peptide reagent SEQ ID NO:105 (peptide)
peptide: GGGKARPKPGG
modifications: not checked
Turning to B12, in assay [2], the ELISA A405nm worked out at 0.256 A405nm.

B13: Peptide reagent SEQ ID NO:85 (peptide)
peptide: GGGKKKKKKKK
modifications: not checked
B13: in assay [1], the ELISA A405nm was found to be 0.53 A405nm.

B14: Peptide reagent SEQ ID NO:65 (peptide)
peptide: KKKAGAAAAGAVVGGLGG
modifications: not checked
B14 displayed an ELISA A405nm in assay [1] of 0.635 A405nm.

B15: Peptide reagent SEQ ID NO:107 (peptide)
peptide: GGGKKRPAPGG
modifications: not checked
Consider B15, for which, in assay [2], the ELISA A405nm came out at 0.578 A405nm.
